Measurements published in patent US20120094899A1 (Takeda / Millennium, published 2012).
Non-standard residues stand in square brackets, D forms with d. No end group written: not given here. *: point of attachment. Acetyl(2-(piperazin-1-yl)) = O=C(CN1CCNCC1)*; PEG 20 kDa = methoxypolyethylene glycol 20k; PEG 30 kDa = methoxypolyethylene glycol 30k; NMeY = CN[C@@H](Cc1ccc(O)cc1)C(=O)O; NMeR = CN[C@@H](CCCNC(=N)N)C(=O)O; NMeL = CN[C@@H](CC(C)C)C(=O)O; NMeA = CN[C@@H](C)C(=O)O; βAla = NCCC(=O)O

T1: Human FM3 (human, UniProt Q9HB89 1-426)
T1 construct: whole, on cells; Assayed as the membrane fraction of FM3-expressing CHO cells (1.2 mg/mL protein); also called NMUR1; FM3 receptor
T1 sequence (looked up): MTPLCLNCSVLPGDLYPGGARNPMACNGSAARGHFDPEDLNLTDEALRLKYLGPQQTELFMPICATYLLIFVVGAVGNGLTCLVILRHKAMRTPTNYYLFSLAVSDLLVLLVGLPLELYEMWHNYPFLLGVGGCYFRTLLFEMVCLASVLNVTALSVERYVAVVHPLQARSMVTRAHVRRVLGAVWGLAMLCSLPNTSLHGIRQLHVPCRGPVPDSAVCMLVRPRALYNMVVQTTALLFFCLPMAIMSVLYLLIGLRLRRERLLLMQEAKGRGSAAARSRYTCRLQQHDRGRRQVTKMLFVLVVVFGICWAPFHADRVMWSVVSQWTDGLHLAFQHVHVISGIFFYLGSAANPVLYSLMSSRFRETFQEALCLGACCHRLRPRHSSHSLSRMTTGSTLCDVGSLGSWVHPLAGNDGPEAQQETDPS

B1: β-Ala0,Trp2,NMeAla6-NMU-8 (Compound 17) (peptide)
peptide: [βAla]YWLFR[NMeA]RN-NH2
modifications: N-terminus assumed
SMILES: CC(C)C[C@H](NC(=O)[C@H](Cc1c[nH]c2ccccc12)NC(=O)[C@H](Cc1ccc(O)cc1)NC(=O)CCN)C(=O)N[C@@H](Cc1ccccc1)C(=O)N[C@@H](CCCNC(=N)N)C(=O)N(C)[C@@H](C)C(=O)N[C@@H](CCCNC(=N)N)C(=O)N[C@@H](CC(N)=O)C(N)=O
B2: PEG20k-NpipAc0,Glu2,NMeAla6-NMU-8 (Compound U) (peptide)
peptide: {PEG 20 kDa-Acetyl(2-(piperazin-1-yl))}-YELFR[NMeA]RN-NH2
notes: also called PEG20k-NpipAc-Glu2,NMeAla6-NMU8
B3: PEG20k-NpipAc0,Glu2,Ala6-NMU-8 (Compound S) (peptide)
peptide: {PEG 20 kDa-Acetyl(2-(piperazin-1-yl))}-YELFRARN-NH2
notes: also called PEG20k-NpipAc-Glu2,Ala6-NMU8
B4: β-Ala0,Glu2,NMeAla6-NMU-8 (Compound 18) (peptide)
peptide: [βAla]YELFR[NMeA]RN-NH2
modifications: N-terminus assumed
SMILES: CC(C)C[C@H](NC(=O)[C@H](CCC(=O)O)NC(=O)[C@H](Cc1ccc(O)cc1)NC(=O)CCN)C(=O)N[C@@H](Cc1ccccc1)C(=O)N[C@@H](CCCNC(=N)N)C(=O)N(C)[C@@H](C)C(=O)N[C@@H](CCCNC(=N)N)C(=O)N[C@@H](CC(N)=O)C(N)=O
B5: NpipAc0,Glu2,Ala6-NMU-8 (Compound 19) (peptide)
peptide: {Acetyl(2-(piperazin-1-yl))}-YELFRARN-NH2
SMILES: CC(C)C[C@H](NC(=O)[C@H](CCC(=O)O)NC(=O)[C@H](Cc1ccc(O)cc1)NC(=O)CN1CCNCC1)C(=O)N[C@@H](Cc1ccccc1)C(=O)N[C@@H](CCCNC(=N)N)C(=O)N[C@@H](C)C(=O)N[C@@H](CCCNC(=N)N)C(=O)N[C@@H](CC(N)=O)C(N)=O
notes: also called 2-(piperazin-1-yl)acetyl-[Glu2,Ala6]-NMU8
B6: NpipAc0,Glu2,NMeAla6-NMU-8 (Compound 21) (peptide)
peptide: {Acetyl(2-(piperazin-1-yl))}-YELFR[NMeA]RN-NH2
SMILES: CC(C)C[C@H](NC(=O)[C@H](CCC(=O)O)NC(=O)[C@H](Cc1ccc(O)cc1)NC(=O)CN1CCNCC1)C(=O)N[C@@H](Cc1ccccc1)C(=O)N[C@@H](CCCNC(=N)N)C(=O)N(C)[C@@H](C)C(=O)N[C@@H](CCCNC(=N)N)C(=O)N[C@@H](CC(N)=O)C(N)=O
notes: also called 2-(piperazin-1-yl)acetyl-[Glu2,NMeAla6]-NMU8
B7: β-Ala0,NMeTyr1,NMeLeu3,NMeArg5-NMU-8 (Compound 16) (peptide)
peptide: [βAla][NMeY]F[NMeL]F[NMeR]PRN-NH2
modifications: N-terminus assumed
SMILES: CC(C)C[C@@H](C(=O)N[C@@H](Cc1ccccc1)C(=O)N(C)[C@@H](CCCNC(=N)N)C(=O)N1CCC[C@H]1C(=O)N[C@@H](CCCNC(=N)N)C(=O)N[C@@H](CC(N)=O)C(N)=O)N(C)C(=O)[C@H](Cc1ccccc1)NC(=O)[C@H](Cc1ccc(O)cc1)N(C)C(=O)CCN
notes: also called β-Ala0,NMeTry1,NMeLeu3,NMEArg5-NMU-8
B8: PEG20k-NpipAc0,Trp2,Ala6-NMU-8 (Compound T) (peptide)
peptide: {PEG 20 kDa-Acetyl(2-(piperazin-1-yl))}-YWLFRARN-NH2
notes: also called PEG20k-NpipAc-Trp2,Ala6-NMU8
B9: 2-(piperazin-1-yl)acetyl-Arg3-NMU8 (Compound 10) (peptide)
peptide: {Acetyl(2-(piperazin-1-yl))}-YFRFRPRN-NH2
SMILES: N=C(N)NCCC[C@H](NC(=O)[C@H](Cc1ccccc1)NC(=O)[C@H](Cc1ccc(O)cc1)NC(=O)CN1CCNCC1)C(=O)N[C@@H](Cc1ccccc1)C(=O)N[C@@H](CCCNC(=N)N)C(=O)N1CCC[C@H]1C(=O)N[C@@H](CCCNC(=N)N)C(=O)N[C@@H](CC(N)=O)C(N)=O
notes: also called NpipAc-Arg3-NMU-8
B10: β-Ala0,Asp8-NMU-8 (Compound 12) (peptide)
peptide: [βAla]YFLFRPRD-NH2
modifications: N-terminus assumed
SMILES: CC(C)C[C@H](NC(=O)[C@H](Cc1ccccc1)NC(=O)[C@H](Cc1ccc(O)cc1)NC(=O)CCN)C(=O)N[C@@H](Cc1ccccc1)C(=O)N[C@@H](CCCNC(=N)N)C(=O)N1CCC[C@H]1C(=O)N[C@@H](CCCNC(=N)N)C(=O)N[C@@H](CC(=O)O)C(N)=O
B11: β-Ala0,Arg3-NMU-8 (Compound 3) (peptide)
peptide: [βAla]YFRFRPRN-NH2
modifications: N-terminus assumed
SMILES: N=C(N)NCCC[C@H](NC(=O)[C@H](Cc1ccccc1)NC(=O)[C@H](Cc1ccc(O)cc1)NC(=O)CCN)C(=O)N[C@@H](Cc1ccccc1)C(=O)N[C@@H](CCCNC(=N)N)C(=O)N1CCC[C@H]1C(=O)N[C@@H](CCCNC(=N)N)C(=O)N[C@@H](CC(N)=O)C(N)=O
B12: β-Ala0,Gln5-NMU-8 (Compound 1) (peptide)
peptide: [βAla]YFLFQPRN-NH2
modifications: N-terminus assumed
SMILES: CC(C)C[C@H](NC(=O)[C@H](Cc1ccccc1)NC(=O)[C@H](Cc1ccc(O)cc1)NC(=O)CCN)C(=O)N[C@@H](Cc1ccccc1)C(=O)N[C@@H](CCC(N)=O)C(=O)N1CCC[C@H]1C(=O)N[C@@H](CCCNC(=N)N)C(=O)N[C@@H](CC(N)=O)C(N)=O
B13: β-Ala0,Arg1-NMU-8 (Compound 7) (peptide)
peptide: [βAla]RFLFRPRN-NH2
modifications: N-terminus assumed
SMILES: CC(C)C[C@H](NC(=O)[C@H](Cc1ccccc1)NC(=O)[C@H](CCCNC(=N)N)NC(=O)CCN)C(=O)N[C@@H](Cc1ccccc1)C(=O)N[C@@H](CCCNC(=N)N)C(=O)N1CCC[C@H]1C(=O)N[C@@H](CCCNC(=N)N)C(=O)N[C@@H](CC(N)=O)C(N)=O
B14: β-Ala0,Gln3-NMU-8 (Compound 2) (peptide)
peptide: [βAla]YFQFRPRN-NH2
modifications: N-terminus assumed
SMILES: N=C(N)NCCC[C@H](NC(=O)[C@@H]1CCCN1C(=O)[C@H](CCCNC(=N)N)NC(=O)[C@H](Cc1ccccc1)NC(=O)[C@H](CCC(N)=O)NC(=O)[C@H](Cc1ccccc1)NC(=O)[C@H](Cc1ccc(O)cc1)NC(=O)CCN)C(=O)N[C@@H](CC(N)=O)C(N)=O
B15: β-Ala0,NMeArg5-NMU-8 (Compound 13) (peptide)
peptide: [βAla]YFLF[NMeR]PRN-NH2
modifications: N-terminus assumed
SMILES: CC(C)C[C@H](NC(=O)[C@H](Cc1ccccc1)NC(=O)[C@H](Cc1ccc(O)cc1)NC(=O)CCN)C(=O)N[C@@H](Cc1ccccc1)C(=O)N(C)[C@@H](CCCNC(=N)N)C(=O)N1CCC[C@H]1C(=O)N[C@@H](CCCNC(=N)N)C(=O)N[C@@H](CC(N)=O)C(N)=O

What was measured:
[1] = target: T1, Human FM3; experiment: displacement of 125I-NMU8 from human FM3 CHO membrane fraction; IC50 relative to NMU-8;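 further: binding reaction run for 70 min at 25 °C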
Procedure: (§1) 15 mL of homogenized buffer (10 mM NaHCO₃ (pH 7.4), 5 mM EDTA, protease inhibitor=0.5 mM PMSF, 10 μg/mL Pepstatin A, 20 μg/mL Leupeptin, and 4 μg/mL E-64) was added to the obtained cell pellets, the cellular membrane was disrupted using a polytron homogenizer (Kinematica GmbH), centrifugation was conducted for 10 minutes at 1,000 g at 4° C., and the supernatant was collected. This process was further repeated twice, and ultracentrifugation was conducted for 60 minutes at 30,000 rpm at 4° C. Thereafter, 8 mL of homogenized buffer was added to the pellets and suspended homogeneously to prepare a membrane fraction. The protein concentration of the FM3-expressing CHO cellular membrane fraction was 1.2 mg/mL, and the protein concentration of the TGR1-expressing CHO cellular membrane fraction was 1.1 mg/mL.
(§2) Specifically, each of the NMU derivatives and PEG conjugates was dissolved in DMSO so as to prepare 2 μL of each dilution series of the NMU derivatives and PEG conjugates. […] The resulting product was thoroughly mixed, and then a reaction was carried out at 25° C. for 70 minutes.

[2] = target: T2, human TGR1 (human, UniProt Q9GZQ4 1-415); experiment: displacement of 125I-NMU8 from human TGR1 CHO membrane fraction; IC50 relative to NMU-8;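 further: competitive binding on TGR1-expressing CHO cell membranes, with compounds tested as DMSO dilution series and incubated for 70 min at 25 °C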
T2 construct: whole, on cells; Assayed as the membrane fraction of TGR1-expressing CHO cells (1.1 mg/mL protein); also called NMUR2; TGR1 receptor
T2 sequence (Q9GZQ4 whole entry): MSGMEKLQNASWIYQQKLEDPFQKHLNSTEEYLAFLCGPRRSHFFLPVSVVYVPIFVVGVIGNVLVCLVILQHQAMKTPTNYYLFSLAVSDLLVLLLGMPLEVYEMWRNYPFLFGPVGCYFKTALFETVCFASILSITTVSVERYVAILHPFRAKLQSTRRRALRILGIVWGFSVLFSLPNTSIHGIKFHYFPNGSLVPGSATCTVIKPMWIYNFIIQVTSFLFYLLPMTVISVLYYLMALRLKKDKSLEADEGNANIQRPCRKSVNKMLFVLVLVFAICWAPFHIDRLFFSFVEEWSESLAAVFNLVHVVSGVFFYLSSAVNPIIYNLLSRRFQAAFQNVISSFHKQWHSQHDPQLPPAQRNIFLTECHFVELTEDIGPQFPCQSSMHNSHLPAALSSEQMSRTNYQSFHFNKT
Procedure: as §1, §2

Binder	IC50 ratio [1]	IC50 ratio [2]
B1	92 ratio to NMU-8 (=1)	1.9 ratio to NMU-8 (=1)
B2		360 ratio to NMU-8 (=1)
B3		750 ratio to NMU-8 (=1)
{PEG 20 kDa-βAla}-YELFR[NMeA]RN-NH2 [PEG20k-NH-β-Ala0,Glu2,NMeAla6-NMU-8 (Compound R)]		540 ratio to NMU-8 (=1)
B4	26000 ratio to NMU-8 (=1)	31 ratio to NMU-8 (=1)
B5	24000 ratio to NMU-8 (=1)	25 ratio to NMU-8 (=1)
B6	6500 ratio to NMU-8 (=1)	5.5 ratio to NMU-8 (=1)
B7		27 ratio to NMU-8 (=1)
B8		55 ratio to NMU-8 (=1)
B9	0.27 ratio to NMU-8 (=1)	0.66 ratio to NMU-8 (=1)
{PEG 30 kDa-βAla}-PFLFRPRN-NH2 (also called PEG-NH-β-Ala0,Pro1-NMU-8) [PEG30k-NH-β-Ala0,Pro1-NMU-8 (Compound H)]	9.4 ratio to NMU-8 (=1)	21 ratio to NMU-8 (=1)
{PEG 30 kDa-Acetyl(2-(piperazin-1-yl))}-YFRFRPRN-NH2 [PEG30k-NpipAc-Arg3-NMU-8 (Compound J)]	2.2 ratio to NMU-8 (=1)	2.6 ratio to NMU-8 (=1)
{PEG 30 kDa-βAla}-YFQFRPRN-NH2 (also called PEG-NH-β-Ala0,Gln3-NMU-8) [PEG30k-NH-β-Ala0,Gln3-NMU-8 (Compound B)]	1.8 ratio to NMU-8 (=1)	7.3 ratio to NMU-8 (=1)
B10	2.4 ratio to NMU-8 (=1)	2 ratio to NMU-8 (=1)
{PEG 30 kDa-βAla}-YYLFRPRN-NH2 (also called PEG-NH-β-Ala0,Tyr2-NMU-8) [PEG30k-NH-β-Ala0,Tyr2-NMU-8 (Compound E)]	8.1 ratio to NMU-8 (=1)	1.7 ratio to NMU-8 (=1)
B11	0.07 ratio to NMU-8 (=1)	0.38 ratio to NMU-8 (=1)
{PEG 20 kDa-Acetyl(2-(piperazin-1-yl))}-YFRFRPRN-NH2 [PEG20k-NpipAc-Arg3-NMU-8 (Compound I)]	1.6 ratio to NMU-8 (=1)	2.1 ratio to NMU-8 (=1)
YFRFRPRN-NH2 (no linker) [Arg3-NMU-8 (Compound 9)]	0.62 ratio to NMU-8 (=1)	1.9 ratio to NMU-8 (=1)
{PEG 30 kDa-βAla}-YFVFRPRN-NH2 (also called PEG-NH-β-Ala0,Val3-NMU-8) [PEG30k-NH-β-Ala0,Val3-NMU-8 (Compound D)]	5.3 ratio to NMU-8 (=1)	2.2 ratio to NMU-8 (=1)
B12	15 ratio to NMU-8 (=1)	3.4 ratio to NMU-8 (=1)
{PEG 30 kDa-βAla}-YFRFRPRN-NH2 (also called PEG-NH-β-Ala0,Arg3-NMU-8) [PEG30k-NH-β-Ala0,Arg3-NMU-8 (Compound C)]	1.7 ratio to NMU-8 (=1)	2.6 ratio to NMU-8 (=1)
{PEG 30 kDa-βAla}-YFLFRPRD-NH2 [PEG30k-NH-β-Ala0,Asp8-NMU-8 (Compound L)]	150 ratio to NMU-8 (=1)	34 ratio to NMU-8 (=1)
{PEG 30 kDa-βAla}-YFLFQPRN-NH2 (also called PEG-NH-β-Ala0,Gln5-NMU-8) [PEG30k-NH-β-Ala0,Gln5-NMU-8 (Compound A)]	160 ratio to NMU-8 (=1)	9.6 ratio to NMU-8 (=1)
{PEG 30 kDa-βAla}-RFLFRPRN-NH2 (also called PEG-NH-β-Ala0,Arg1-NMU-8) [PEG30k-NH-β-Ala0,Arg1-NMU-8 (Compound G)]	1.5 ratio to NMU-8 (=1)	8.5 ratio to NMU-8 (=1)
B13	0.42 ratio to NMU-8 (=1)	3.7 ratio to NMU-8 (=1)
B14	0.31 ratio to NMU-8 (=1)	3.9 ratio to NMU-8 (=1)
B15	0.46 ratio to NMU-8 (=1)	
